Data on 1 substance can be found in PMC8951179.

Test [1] has as its target GST-Ku70_1–250_Q65A/Q68A (human) (UniProt P12956). The experiment in a line: pull-down; GST pull-down: 100 nM GST-Ku70 variant as bait on glutathione-agarose, 100 or 200 nM His6-IN; buffer A (20 mM Hepes pH 7.5, 100 mM NaCl, 7.5 mM MgCl2, 2 mM 2-mercaptoethanol, 50 µg/mL BSA, 0.1% NP40), room temperature; Western blot. (In general: Immunoblotting shows a protein as a band on a membrane.)

In test [2] the target is GST-Ku70_1–250_S69A (human) (UniProt P12956). Described as above.

In test [1], “HIV-1 integrase carrying N-terminal His6-tag (natural protein)” yielded a reduction in the protein binding efficiency (control Ku70 1–250) of 10 to 15%. Besides, the IN binding activity, % of the wild-type protein in test [2] lay in the range of 55 to 73%.
